The values that follow come from US20160185832A1 (University of Pennsylvania, published 2016).

Experiment [1] deals with T1, pure, pre-polymerized, taxol-stabilized microtubules of bovine tubulin (Cytoskeleton) (bovine, UniProt P81947 1-451; Q6B856 1-445, limits assumed).
T1 construct: Polymer of alpha/beta tubulin dimers, polymerized with GTP and stabilized with 10 µM taxol; also called MT; MTs
The experiment in a line: microtubule co-sedimentation, 1 nM purified 6×His truncation M with increasing microtubules, Coomassie gel, non-linear regression. The method, then:
For the direct microtubule binding assay, 1 nM of recombinantly expressed and purified 6×His tagged CEP290 truncation M was incubated at 30° C. for 30 minutes with increasing amounts of pure, prepolymerized microtubules. Reactions were centrifuged and subjected to SDS-PAGE as above, and tubulin and CEP290 truncation M were detected by Coomassie blue staining.

Experiment [2] has as its target T1, pure, pre-polymerized, taxol-stabilized …. The experiment in a line: in vitro microtubule co-sedimentation of in vitro translated GFP fusions, western blot. As for the experimental part:
Crude TNT T7 reaction products were diluted 1:1 in BRB80 supplemented with 1 mM GTP and 10 μM taxol. The diluted products were then incubated at 30° C. for 30 minutes in either the presence or absence of pure, pre-polymerized microtubules. Reactions were then centrifuged through a 40% sucrose cushion at 48,000×g for 30 minutes, the supernatant was collected, and the pellet washed once with warm BRB80 and resuspended in 1×SDS PAGE sample buffer. Both fractions were subjected to SDS-PAGE and transferred to nitrocellulose. The presence of tubulin in the pellets was confirmed by Ponceau staining, and GFP-tagged CEP290 constructs were detected by immunoblotting.

The Kd is the concentration at which binding is half-saturated.

T1 sequence (P81947 whole entry, chain 1 of 2): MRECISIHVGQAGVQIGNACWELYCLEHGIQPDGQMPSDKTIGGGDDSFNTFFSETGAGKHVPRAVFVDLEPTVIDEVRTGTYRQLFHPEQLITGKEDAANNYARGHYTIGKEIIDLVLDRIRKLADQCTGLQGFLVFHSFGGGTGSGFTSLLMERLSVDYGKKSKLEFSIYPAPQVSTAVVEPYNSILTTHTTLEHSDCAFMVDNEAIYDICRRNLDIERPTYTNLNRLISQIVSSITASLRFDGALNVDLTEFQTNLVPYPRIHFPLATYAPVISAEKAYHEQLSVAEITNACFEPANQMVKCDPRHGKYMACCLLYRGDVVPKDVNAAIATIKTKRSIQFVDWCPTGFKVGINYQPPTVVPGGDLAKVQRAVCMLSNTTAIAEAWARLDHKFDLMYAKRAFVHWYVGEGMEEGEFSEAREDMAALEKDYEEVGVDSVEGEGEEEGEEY
T1 sequence (Q6B856 whole entry, chain 2 of 2): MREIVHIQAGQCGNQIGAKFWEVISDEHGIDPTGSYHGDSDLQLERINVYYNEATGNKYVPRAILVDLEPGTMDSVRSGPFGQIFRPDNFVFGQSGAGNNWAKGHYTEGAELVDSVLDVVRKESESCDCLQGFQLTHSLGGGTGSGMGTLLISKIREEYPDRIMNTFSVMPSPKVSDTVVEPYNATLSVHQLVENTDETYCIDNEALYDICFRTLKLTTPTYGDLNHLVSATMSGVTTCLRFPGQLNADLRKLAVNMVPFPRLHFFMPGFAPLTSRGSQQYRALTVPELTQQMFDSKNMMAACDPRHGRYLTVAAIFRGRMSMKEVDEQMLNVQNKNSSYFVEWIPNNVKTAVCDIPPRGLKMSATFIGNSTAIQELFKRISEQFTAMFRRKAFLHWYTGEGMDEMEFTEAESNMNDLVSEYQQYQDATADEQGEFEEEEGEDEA

B1: 6×His tagged CEP290 truncation M (aa 1695-1966), recombinantly expressed and purified (other)
chain: DQSQKESQCLKSELQAQKEANSRAPTTTMRNLVERLKSQLALKEKQQKALSRALLELRAEMTAAAEERIISATSQKEAHLNVQQIVDRHTRELKTQVEDLNENLLKLKEALKTSKNRENSLTDNLNDLNNELQKKQKAYNKILREKEEIDQENDELKRQIKRLTSGLQGKPLTDNKQSLIEELQRKVKKLENQLEGKVEEVDLKPMKEKNAKEELIRWEEGKKWQAKIEGIRNKLKEKEGEVFTLTKQLNTLKDLFAKADKEKLTLQRKLKT
notes: Expressed in E. coli BL21(DE3)pLysS, purified on Ni-NTA; also called region M; CEP290 region M; not shown: N-terminal 6×His tag from pDest-527
In turn, B1 displayed a Kd in experiment [1] of approximately 100 nM.

B2: GFP-tagged "Deleted" CEP290 truncation (part of the microtubule binding region deleted in the rd16 mouse) (other)
chain: DQSQKESQCLKSELQAQKEANSRAPTTTMRNLVERLKSQLALKEKQQKALSRALLELRAEMTAAAEERIISATSQKEAHLNVQQIVDRHTRELKTQVEDLNENLLKLKEALKTSKNRENSLTDNLNDLNNELQKKQKAYNKILREKEEIDQENDELKRQIKRLTSGLQGKPLTDNKQSLIEELQRKVKKLENQLEGKVEEVDLKPMKEK
notes: not shown: N-terminal GFP tag from pcDNA-DEST53 (Gateway)
B2: the binding result in experiment [2] was “no binding”.
